The assay in a line: Heme binding by native and mutant forms of GST-IsdA (electronic spectra, A407/A280). The conditions noted are these: GST-IsdA fusion proteins as expressed and isolated from E. coli; heme scavenged from E. coli cytoplasm; room temperature.

This is an account of results in patent US20080050361A1, “STAP[…] […] ANTI-INFECTIVES” (priority 2004, published 2008).

Method: Wild type and point mutant proteins were purified as expressed from E. coli and relative heme binding was assessed based upon the ability of the proteins, all expressed in an equivalent fashion, to scavenge and retain association with heme derived from the cytoplasm of E. coli Proteins were adjusted to an equivalent concentration and electronic spectra were recorded using a Cary 500 spectrophotometer (Varian Inc.) with a 1 cm path length and 1 mL quartz cuvettes. All recordings were taken at room temperature.

B1: IsdA: full length (excluding signal peptide and C-terminal sorting sequences) IsdA, amino acids 48-316, GST fusion expressed in E. coli (protein, listed as Staphylococcus aureus)
chain: TEATNATNNQSTQVSQATSQPINFQVQKDGSSEKSHMDDYMQHPGKVIKQNNKYYFQTVLNNASFWKEYKFYNANNQELATTVVNDNKKADTRTINVAVEPGYKSLTTKVHIVVPQINYNHRYTTHLEFEKAIPTLADAAKPNNVKPVQPKPAQPKTPTEQTKPVQPKVEKVKPTVTTTSKVEDNHSTKVVSTDTTKDQTKTQTAHTVKTAQTAQEQNKVQTPVKDVATAKSESNNQAVSDNKSQQTNKVTKHNETPKQASKAKELPKT
modifications: GST fusion
For B1, the A407/A280 ratio is 0.629.
